The target of assay [1] is T1, human CXCL13 (human, UniProt O43927 23-109).
T1 construct: also called huCXCL13; rhCXCL13
T1 sequence (looked up): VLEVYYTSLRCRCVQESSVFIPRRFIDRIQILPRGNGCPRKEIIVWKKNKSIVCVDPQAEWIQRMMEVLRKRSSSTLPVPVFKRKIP
Nature of the assay: ELISA, coated antigen.

A further assay addresses T2, cynomolgus CXCL13 (cynomolgus, UniProt H6WS58 23-109).
T2 construct: also called cynoCXCL13; Cyno CXCL13
T2 sequence: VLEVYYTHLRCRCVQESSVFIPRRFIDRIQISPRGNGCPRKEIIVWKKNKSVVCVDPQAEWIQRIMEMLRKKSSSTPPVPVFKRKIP
Nature of the assay: ELISA, coated antigen. (In general: An ELISA detects its analyte on a solid surface through an enzyme-linked reagent.)

The target in another assay is T3, mouse CXCL13 (mouse, UniProt O55038 22-109).
T3 construct: also called rmCXCL13
T3 sequence (looked up): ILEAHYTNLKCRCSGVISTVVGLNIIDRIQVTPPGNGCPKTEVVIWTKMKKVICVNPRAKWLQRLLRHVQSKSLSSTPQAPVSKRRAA
Nature of the assay: ELISA, coated antigen.

In assay [2] the target is T1, human CXCL13. Nature of the assay: cell-based blocking ELISA, CXCL13 to CHO-K1-CXCR5. The method, then:
Splenocytes were electro-fused with mouse myeloma cell line SP2/0 cells and plated into 96-well culture plate. The hybridoma supernatants were tested by ELISA binding assay for anti-human CXCL13 binders. Supernatants of positive binding clones were screened for function in blocking of human CXCL13 binding to its […] CXCR5 by Cell-based receptor blocking ELISA assay. Briefly, 5×10⁴ CHO-K1-CXCR5 cells were plated in 96-well plate with 100 μl of culture medium and incubated at 37° C. overnight. Cells were fixed with 100 μl of 2% PFA at RT for 1 hr after washing with PBS for 1 time. Blocking was done with 1% BSA in PBST for 1 hr at RT. Supernatants were diluted with PBS and pre-incubated with equal volume of 0.3 μg/ml human CXCL13 for 30 min at RT. 100 μl of antibody-antigen complex was then transferred into each cell wells for 30 min at RT. The samples were washed with 1×PBST for 3 times and 100 μl of 3 μg/ml of human Mab5261 antibody was add into each well to capture human CXCL13 and anti-human Fc-HRP was used to indirectly detect human CXCL13 when it bound to CHO-K1-CXCR5 cells. […] Reading was done at […].
Those antibodies were purified from hybridoma supernatants by binding with Protein G column and characterized by ELISA binding assays and cell-based blocking ELISA assays. […] 11/20 clones bound to both human CXCL13 and cynomolgus CXCL13 appeared to completely block human CXCL13 to human CXCR5. 11 blockers bound to both huCXCL13 and cynoCXCL13 were produced as chimeric human IgG1 antibodies for further Characterization.

Assay [3] deals with T1, human CXCL13. Nature of the assay: SPR Biacore T200. The method, then: To further optimization of 71F4-B, each Mutations in 71F4A3 useful for improving binding (Kon) were added into 71F4-B, the sequences were listed in Table 28. Antibodies according to these sequences were generated and affinity testing was performed by Biacore T200.
Background: Surface plasmon resonance follows binding to a sensor surface in real time, without labels.

This note sets out measurements from patent publication US20210284724A1 (I MAB BIOPHARMA US, published 2021).

B1: 181B11G12 (antibody, V domains shown)
VH: EVKLVESEGGLVQPGSSMKLSCTASGFTFSDYYMAWVRQVPEKGLEWVANINYDGSDTYYLDSLKSRFIISRDNAKNILYLQMSSLKSEDTATYYCVRDVAYDDSYAMDYWGQGTSVTVSS
VL: DIQMTQSPSSLSASLGGKVTITCKASQDINKYIAWYQHKPGKGPRLLIHYTSTLQPGIPSRFSGSGSGRDYSFSISNLEPEDIATYYCLQYDSLYTFGGGTKLEIK
notes: Hybridoma mAb
In the assay with human CXCL13 [1], B1 showed an EC50 of 0.0223 µg/mL. Moreover, the binding result in the assay with cynomolgus CXCL13 and in the assay with mouse CXCL13 was “no binding” each time. Moreover, it took 0.703 µg/mL to reach half-maximal inhibition with human CXCL13 [2] (IC50).

B2: 177D2G10 (antibody, V domains shown)
VH: QIALKESGPGILQSSQTLSLTCSFSGFSLSTSGMHVGWFRQPSGKTLEWLAHIYWDDDKRYNPSLKSRLTISKDTSRNQVFLNLTNVDTADTATYYCARRGGDYDYDEGFDYWGQGTTLTVSS
VL: DVVMTQTPLSLPVSLGDQASISCRSSQSLVHSNGFTYLHWYLQKPGQSPKLLIYKVSNRFSGVPDRFSGSGSGTEFTLRISRVEAEDLGVYFCSQSTHVPYTFGGGTKLEIK
notes: Hybridoma mAb
The molecule B2 came in with an EC50 in the assay with human CXCL13 [1] of 0.0544 µg/mL. Further, the binding result with cynomolgus CXCL13 and with mouse CXCL13 was “no binding” throughout. This molecule also gave an IC50 with human CXCL13 [2] of roughly 912 µg/mL.

B3: 71F4-B-A (antibody, V domains shown)
VH: EVQLVESGGGLVQPGGSLRLSCAASGIDFSRYWMSWVRQAPGKGLEWVAEINPEASTINYAPSLKDRFTISRDNAKNSLYLQMNSLRAEDTAVYYCARQDDYEYYTMDYWGQGTTVTVSS
VL: DIQMTQSPSSLSASVGDRVTITCKVSQDVNTGVAWYQQKPGKAPKLLIYSASYRYTGVPSRFSGSGSGTDFTFTISSLQPEDIATYYCQQYYSTPLTFGGGTKLEIK
In the assay with human CXCL13 [3], B3 had a Kd of 0.388 nM, a koff of 6.82e-05 s⁻¹ and a kon of 176000 M⁻¹ s⁻¹.

B4: 345G1B4 (antibody, V domains shown)
VH: QVTLKESGPGILQPSQTLSLTCSFSGFSLSTSNMGVGWIRQPSGKGLEWLAHIWWDDVKRYNPALKSRLTISKDTSSSQVFLKIASVDTADTATYYCARSTTLVAFDYWGQGTTLTVSS
VL: DIVMTQSPSSLTVTAGEKVTMSCKSSQSLLNSGNQKNYLTWYQQKPGQPPKLLIYWASTRESGVPDRFTGSGSGTDFTLTISSVQAEDLAVYYCQNDYSYPTFGGGTKLEIK
notes: Hybridoma mAb
Molecule B4 returned an EC50 with human CXCL13 [1] of 0.0138 µg/mL. In addition, the binding result with cynomolgus CXCL13 and with mouse CXCL13 was “no binding” in each case. The molecule also registered an IC50 in the assay with human CXCL13 [2] of 3.24 µg/mL.

B5: 396A5A1 (antibody, V domains shown)
VH: QVTLKESGPGILQPSQTLSLTCSFSGFSLSTSGMGIGWIRQPSGKGLEWLAHIWWDDIKRYNPALKSRLTVSKDTSTSQVFLNIASVDTADIATYFCARSTTVVAFDYWGQGTTLTVSS
VL: DILMTQSPSSLTVTAGEKVTMSCKSSQSLLNSGNQKNYLTWYQQKPGQPPKLLIYWASTRESGVPDRFTGTGSGTDFTLTISSVQAEDLAIYYCQNDYDYPTFGGGTKLEIK
notes: Hybridoma mAb
B5 displayed an EC50 with human CXCL13 [1] of 0.0135 µg/mL. The binding result in the assay with cynomolgus CXCL13 and with mouse CXCL13 was “no binding” in each case. Moreover, the IC50 in the assay with human CXCL13 [2] was 1 µg/mL.

B6: 175E3B10 (antibody, V domains shown)
VH: QVTLKESGPGILQPSQTLSLTCSFSEFSLSVFGMGVGWIRQPSGKGLEWLAHIWWDDEKYYNPALKSRLTISKDTSKNQVFLKIANVDTADTATYFCARIDGYYDFDYWGQGTTLTVSS
VL: DVLMTQTPLSLPVSLGTQASIFCRSSHSIVQDNGNTYLQWYLQKPGQSPKLLIYKVSNRFSGVPDRFSGSGSGTDFTLKISRVEAEDLGVYYCFQGSYVPYTFGGGTKLEIK
notes: Hybridoma mAb
B6: the EC50 in the assay with human CXCL13 [1] was 0.0326 µg/mL. In addition, the binding result in the assay with cynomolgus CXCL13 and with mouse CXCL13 was “no binding” each time. In the assay with human CXCL13 [2], this molecule showed an IC50 of 1.42 µg/mL.

B7: 184H10B5 (antibody, V domains shown)
VH: QVTLKESGPGILQPSQTLSLTCSFSEFSLSVFGMGVGWIRQPSGKGLEWLAHIWWDDEKYYNPALKSRLTISKDTSKNQVFLKIANVDTADTATYYCARIDGYYDFDYWGQGTTLTVSS
VL: DVLMTQTPLSLPVSLGTQASISCRSSHSIVQDNGNTYLQWYLQKPGQSPQLLIYKVSNRFSGVPDRFSGSGSGTDFTLKISRVEAEDLGVYYCFQGSYVPYTFGGGTKLEIK
notes: Hybridoma mAb
B7 showed an EC50 in the assay with human CXCL13 [1] of 0.0272 µg/mL. The binding result with cynomolgus CXCL13 and with mouse CXCL13 was “no binding” each time. Moreover, in the assay with human CXCL13 [2], the IC50 worked out at 4.85 µg/mL.

B8: 178E2B3 (antibody, V domains shown)
VH: QVQLQQSGAELVRPGTSVKVSCKASGYAFTNHLIEWVKQRPGQGLEWIGVINPGSGGTKYNEKFKGKATVTADKSSSTVYMQLNSLTSEDSAVYFCARSSDGYYEEDYFDYWGQGTTLTVSS
VL: QIVLTQSPAIMSASPGEKVTMTCSASSSVNYMQWYQQKSGTSPKRWIYDTSELASGVPDRFSGSGSGTSYSLTISSMEAEDVATYYCQQWSSDPITFGAGTKLELK
notes: Hybridoma mAb
On to B8, for which, in the assay with human CXCL13 [1], a half-maximal response (EC50) required 0.0153 µg/mL. Besides, the binding result with cynomolgus CXCL13 and with mouse CXCL13 was “no binding” each time. In the assay with human CXCL13 [2], this molecule gave an IC50 of 0.974 µg/mL.

B9: 156H3H7 (antibody, V domains shown)
VH: EVQLQQSGPELVKPGASVKISCKASGYTFTDYYMNWVRQSHGKSLEWIGDINPNNGDTTYNQKFKGKATLTVDTSSSTVYMELRSLTSEDSAVYYCAGYDEDHYAMDYWGQGTSVTVSS
VL: DYVMTQSHKFMSTSVGDRVSITCKASQDVSTGVAWYQQNPGQSPKLLIYSASHRYTGVPDRFTGSGSGTDFTFTISSVQAEDLAVYYCQQYYTTPWTFGGGTKLEIK
notes: Hybridoma mAb
In the assay with human CXCL13 [1], B9 showed an EC50 of 0.0134 µg/mL. Further, the binding result with cynomolgus CXCL13 and with mouse CXCL13 was “no binding” throughout. The same molecule gave an IC50 with human CXCL13 [2] of 4.59 µg/mL.

B10: 168A2D4 (antibody, V domains shown)
VH: EVQLQQSGPELVKPGASVKISCKASGNTLTDYYMNWVKQSHGKSLEWIGDINPNNGDIIYNQKFKGKATLTVAKSSSTAYMELRSLTSEDSAVYYCAIYYDPYYHAMDYWGQGTSVTVSS
VL: DIVMTQSHKFMSTSVRDRVSITCKASQDVSTGVAWYQQKPGQSPKLLIYSASYRYTGVPDRFTGSGSGTDFTFTISSVQAEDLAVYYCQQQYSVPLTFGAGTKLELK
notes: Hybridoma mAb
In the case of B10, a half-maximal effect with human CXCL13 [1] (EC50) was put at 0.134 µg/mL. Moreover, the binding result with cynomolgus CXCL13 and with mouse CXCL13 was “no binding” throughout. The IC50 with human CXCL13 [2] worked out at 0.29 µg/mL.

B11: 168D6F2 (antibody, V domains shown)
VH: QVQLQQPGAELVKPGASVKLSCQASGYTFTSYWMHWVKQRPGRGLEWIGGIDPDSGATKDNEKFKTKATLTVDKPSRTAYIQLSSLTSEDSAVFYCARGSTVVAPGDYFAMDYWGQGTSVTVSS
VL: DIVLTPSPTSLAVSLGQRATMSCRASESVDNYGISFMHWYQQKPGQPPKLLIYRASNLDSGIPARFSASGSRTDFTLTINPVETDDVATYYCQQSNKDPWTFGGGTKLEIK
notes: Hybridoma mAb
With B11, the response in the assay with human CXCL13 [1] was half-maximal at 0.0218 µg/mL (EC50). Moreover, the binding result with cynomolgus CXCL13 and in the assay with mouse CXCL13 was “no binding” throughout. In the assay with human CXCL13 [2], this molecule registered an IC50 of 2.09 µg/mL.

B12: 409G9C2 (antibody, V domains shown)
VH: EVQLQQSGPGLVKPSGTLSLTCAVSGGSITSSYWWTWVRQPPGKGLEWIGEIYHSGRPNYNPSLKSRATISVDKSRNQFSLNLTSVTAADTAVYYCAKTAAVSYWYFDLWGRGTLVTVSS
VL: DIKMNQSPSSMSASLGDRVTITCQASQDIGNDLIWFQQKPGKSPRPLIYYASNLANGVPSRFSGRRSESNYSLTISSLESEDMADYHCLQFKQYPFTFGAGTKLELK
notes: Hybridoma mAb
On to B12, for which the EC50 in the assay with human CXCL13 [1] turned out to be 2.27 µg/mL; with mouse CXCL13, 0.538 µg/mL. Further, the binding result with cynomolgus CXCL13 was “no binding”. This molecule also gave an IC50 with human CXCL13 [2] of 11.7 µg/mL.

B13: 410A4D10 (antibody, V domains shown)
VH: EVQLQQSGPGLVRPSGTLSLTCAVSGGSISSRNWWGWVRQPPGKGLEWIGEIYHSGGTNYNPSLKSRVTISVDKSKNQFSLKLSSVTAADTAVYYCAREFGDSVWYFDLWGRGTLVTVSS
VL: DIVITQSPSSMSASLGDRVTITCQASQDIGNDLVWFQQKPGKSPRPLIYYATNLADGVPSRFSGRRSESKYSLTISNLESEDMADYHCLQFKQYPYTFGAGTKLELK
notes: Hybridoma mAb
Take B13: the EC50 with human CXCL13 [1] was 2.14 µg/mL; in the assay with mouse CXCL13 it was 0.761 µg/mL. For the same molecule, the binding result with cynomolgus CXCL13 is “no binding”. The IC50 with human CXCL13 [2] was found to be 8.38 µg/mL.

In general, EC50 refers to the midpoint of the concentration-response curve. The low end stands for an effect from little substance, the high end for a need for much substance. Broadly, the IC50 is the midpoint of a concentration-inhibition curve. Low readings indicate inhibition by little substance, high ones a need for much substance. As a reminder, the Kd is the free concentration of one partner at which half of the binding sites on the other are occupied at equilibrium, for simple one-to-one binding. One may read the koff as a measure of how fast the partners let go of each other. One may read the kon as a measure of how fast the partners come together. High values mean faster complex formation, low ones slower complex formation.
